Assay results as given in US20140087995A1 (published 2014).
Numbered stars: 1 amine (or outer) side, 2 acyl side, 3 side chain; on linkers, the order of the positions; unused ones are H or OH. Bridge positions count the residues as written; N and C are the ends. * marks the point of attachment. C20 diacid = O=C(O)CCCCCCCCCCCCCCCCCCC(=O)*; γGlu = O=C(O)[C@H](CCC(=O)[*:2])N[*:1]

Experiments:
[1] = target: T1, human calcitonin receptor (human, UniProt P30988 25-474); assay: ratio IC50 hCTR / IC50 hAmylin-R of the two SPA competition assays; reference: human amylin receptor
T1 construct: whole, on cells; Assay used cell membranes of the transfected BHK cells; also called hCTR; hCT
T1 sequence (looked up): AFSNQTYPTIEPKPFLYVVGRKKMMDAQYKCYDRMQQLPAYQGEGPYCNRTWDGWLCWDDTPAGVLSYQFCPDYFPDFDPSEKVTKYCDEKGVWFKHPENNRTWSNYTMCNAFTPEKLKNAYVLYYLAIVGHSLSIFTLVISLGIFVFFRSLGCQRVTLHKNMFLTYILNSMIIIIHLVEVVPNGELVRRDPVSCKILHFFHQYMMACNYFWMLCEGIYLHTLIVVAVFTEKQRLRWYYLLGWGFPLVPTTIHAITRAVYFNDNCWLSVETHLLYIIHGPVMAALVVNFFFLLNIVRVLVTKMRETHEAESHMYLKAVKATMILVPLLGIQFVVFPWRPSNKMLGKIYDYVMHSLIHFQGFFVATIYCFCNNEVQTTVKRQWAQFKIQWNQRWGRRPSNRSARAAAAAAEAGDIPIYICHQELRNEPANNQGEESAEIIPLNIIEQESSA
Protocol: The resulting pellet was resuspended, homogenized and centrifuged (20.000 rpm, 15 min) in a buffer containing 20 mM Na-HEPES and 0.1 mM EDTA (pH 7.4, buffer 2). The resulting pellet was resuspended in buffer 2 and protein concentration was measured (BCA protein Assay, Pierce). The homogenate was kept cold during the whole procedure. The membranes were kept at −80° C. until use. The assay was performed in a 384 well Optiplate (PerkinElmer) in a total volume of 40 ul. Membranes were mixed with SPA beads. Final concentration of membranes 35 ng/μL final and SPA beads was 0.05 mg/well. Test-compounds were dissolved in DMSO and further diluted in assay buffer (50 mM Hepes, pH 7.4, 1 mM CaCl2, 5 mM MgCl₂, 0.1% OA and 0.02% Tween20). […] The final mixture was incubated with shaking at 400 rpm for 120 min at 25° C. prior to centrifugation (1500 rpm, 10 min). Samples were analyzed on TopCounter™ (Packard). The IC₅₀ was calculated using (one site binding competition analysis) GraphPad Prism5 as a measure of receptor affinity.
Membranes were prepared in the following way; the cells were rinsed with PBS and incubated with Versene for approximately 5 min before harvesting. The cells were flushed with PBS and the cell-suspension was centrifuged for 5 min at 1000 rpm. Cells were homogenized (Ultrathurrax) in a buffer containing 20 mM Na-HEPES and 10 mM EDTA (pH 7.4) and centrifuged at 20.000 rpm for 15 min. The resulting pellet was resuspended, homogenized and centrifuged (20.000 rpm, 15 min) in a buffer containing 20 mM Na-HEPES and 0.1 mM EDTA (pH 7.4, buffer 2). The resulting pellet was resuspended in buffer 2 and protein concentration was measured (BCA protein Assay, Pierce). The homogenate was kept cold during the whole procedure. The membranes were kept at −80° C. until use. Assay was performed in a 384 well Optiplate (PerkinElmer) in a total volume of 40 ul. Membranes were mixed with SPA beads.

[2] = target: T1, human calcitonin receptor; assay: SPA radioligand competition (125I-calcitonin), membranes of BHK cells with human calcitonin receptor
Summary of the method: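 BHK hCTR membranes 35 ng/μL + SPA beads 0.05 mg/well; buffer 50 mM Hepes pH 7.4, 1 mM CaCl2, 5 mM MgCl₂, 0.1% OA, 0.02% Tween20. 120 min, 25° C., shaking. Scintillation count; IC50 by one-site binding competition.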

B1: N^α1-[(4S)-4-carboxy-4-(19-carboxynonadecanoylamino)butanoyl]-[Glu14,Arg17,Pro21,Pro27,His34]-h-amylin (peptide)
peptide: {C20 diacid-γGlu}-KCNTATCATQRLAEFLRHSSPNFGAIPSSTNVGHNTY-NH2
modifications: disulfide 2-7
SMILES: CC[C@H](C)[C@H](NC(=O)[C@H](C)NC(=O)CNC(=O)[C@H](Cc1ccccc1)NC(=O)[C@H](CC(N)=O)NC(=O)[C@@H]1CCCN1C(=O)[C@H](CO)NC(=O)[C@H](CO)NC(=O)[C@H](Cc1c[nH]cn1)NC(=O)[C@H](CCCNC(=N)N)NC(=O)[C@H](CC(C)C)NC(=O)[C@H](Cc1ccccc1)NC(=O)[C@H](CCC(=O)O)NC(=O)[C@H](C)NC(=O)[C@H](CC(C)C)NC(=O)[C@H](CCCNC(=N)N)NC(=O)[C@H](CCC(N)=O)NC(=O)[C@@H](NC(=O)[C@H](C)NC(=O)[C@@H]1CSSC[C@H](NC(=O)[C@H](CCCCN)NC(=O)CC[C@H](NC(=O)CCCCCCCCCCCCCCCCCCC(=O)O)C(=O)O)C(=O)N[C@@H](CC(N)=O)C(=O)N[C@@H]([C@@H](C)O)C(=O)N[C@@H](C)C(=O)N[C@@H]([C@@H](C)O)C(=O)N1)[C@@H](C)O)C(=O)N1CCC[C@H]1C(=O)N[C@@H](CO)C(=O)N[C@@H](CO)C(=O)N[C@H](C(=O)N[C@@H](CC(N)=O)C(=O)N[C@H](C(=O)NCC(=O)N[C@@H](Cc1c[nH]cn1)C(=O)N[C@@H](CC(N)=O)C(=O)N[C@H](C(=O)N[C@@H](Cc1ccc(O)cc1)C(N)=O)[C@@H](C)O)C(C)C)[C@@H](C)O
notes: Synthetic analogue; also called compound 17
How did the “Ratio hCT/hAmylin binding” value [1] turn out when B1 was run?
The value was 12.5.

What about the IC50 [2] of the same binder?
Its IC50 is 10.9 nM.

B2: N^α1N^α1-[(4S)-4-carboxy-4-(19-carboxynonadecanoylamino)butanoyl]-[Glu14,Arg17,Pro21,Pro27,Glu35]-h-amylin (peptide)
peptide: {C20 diacid-γGlu}-KCNTATCATQRLAEFLRHSSPNFGAIPSSTNVGSETY-NH2
modifications: disulfide 2-7
SMILES: CC[C@H](C)[C@H](NC(=O)[C@H](C)NC(=O)CNC(=O)[C@H](Cc1ccccc1)NC(=O)[C@H](CC(N)=O)NC(=O)[C@@H]1CCCN1C(=O)[C@H](CO)NC(=O)[C@H](CO)NC(=O)[C@H](Cc1c[nH]cn1)NC(=O)[C@H](CCCNC(=N)N)NC(=O)[C@H](CC(C)C)NC(=O)[C@H](Cc1ccccc1)NC(=O)[C@H](CCC(=O)O)NC(=O)[C@H](C)NC(=O)[C@H](CC(C)C)NC(=O)[C@H](CCCNC(=N)N)NC(=O)[C@H](CCC(N)=O)NC(=O)[C@@H](NC(=O)[C@H](C)NC(=O)[C@@H]1CSSC[C@H](NC(=O)[C@H](CCCCN)NC(=O)CC[C@H](NC(=O)CCCCCCCCCCCCCCCCCCC(=O)O)C(=O)O)C(=O)N[C@@H](CC(N)=O)C(=O)N[C@@H]([C@@H](C)O)C(=O)N[C@@H](C)C(=O)N[C@@H]([C@@H](C)O)C(=O)N1)[C@@H](C)O)C(=O)N1CCC[C@H]1C(=O)N[C@@H](CO)C(=O)N[C@@H](CO)C(=O)N[C@H](C(=O)N[C@@H](CC(N)=O)C(=O)N[C@H](C(=O)NCC(=O)N[C@@H](CO)C(=O)N[C@@H](CCC(=O)O)C(=O)N[C@H](C(=O)N[C@@H](Cc1ccc(O)cc1)C(N)=O)[C@@H](C)O)C(C)C)[C@@H](C)O
notes: Synthetic analogue; also called compound 22
Which results are given for B2?
Ratio hCT/hAmylin binding [1]: 12.3; IC50 [2]: 9.73 nM

B3: N^α1-[(4S)-4-carboxy-4-(19-carboxynonadecanoylamino)butanoyl]-[His14,Arg17,Pro21,Pro27,Glu35]-h-amylin (peptide)
peptide: {C20 diacid-γGlu}-KCNTATCATQRLAHFLRHSSPNFGAIPSSTNVGSETY-NH2
modifications: disulfide 2-7
SMILES: CC[C@H](C)[C@H](NC(=O)[C@H](C)NC(=O)CNC(=O)[C@H](Cc1ccccc1)NC(=O)[C@H](CC(N)=O)NC(=O)[C@@H]1CCCN1C(=O)[C@H](CO)NC(=O)[C@H](CO)NC(=O)[C@H](Cc1c[nH]cn1)NC(=O)[C@H](CCCNC(=N)N)NC(=O)[C@H](CC(C)C)NC(=O)[C@H](Cc1ccccc1)NC(=O)[C@H](Cc1c[nH]cn1)NC(=O)[C@H](C)NC(=O)[C@H](CC(C)C)NC(=O)[C@H](CCCNC(=N)N)NC(=O)[C@H](CCC(N)=O)NC(=O)[C@@H](NC(=O)[C@H](C)NC(=O)[C@@H]1CSSC[C@H](NC(=O)[C@H](CCCCN)NC(=O)CC[C@H](NC(=O)CCCCCCCCCCCCCCCCCCC(=O)O)C(=O)O)C(=O)N[C@@H](CC(N)=O)C(=O)N[C@@H]([C@@H](C)O)C(=O)N[C@@H](C)C(=O)N[C@@H]([C@@H](C)O)C(=O)N1)[C@@H](C)O)C(=O)N1CCC[C@H]1C(=O)N[C@@H](CO)C(=O)N[C@@H](CO)C(=O)N[C@H](C(=O)N[C@@H](CC(N)=O)C(=O)N[C@H](C(=O)NCC(=O)N[C@@H](CO)C(=O)N[C@@H](CCC(=O)O)C(=O)N[C@H](C(=O)N[C@@H](Cc1ccc(O)cc1)C(N)=O)[C@@H](C)O)C(C)C)[C@@H](C)O
notes: Synthetic analogue; also called compound 30
Which results are given for B3?
Ratio hCT/hAmylin binding [1]: 23.6; IC50 [2]: 21.6 nM

B4: N^α1-[(4S)-4-carboxy-4-(19-carboxynonadecanoylamino)butanoyl]-[Glu14,Arg17,Pro21,Pro27,Pro34]-h-amylin (peptide)
peptide: {C20 diacid-γGlu}-KCNTATCATQRLAEFLRHSSPNFGAIPSSTNVGPNTY-NH2
modifications: disulfide 2-7
SMILES: CC[C@H](C)[C@H](NC(=O)[C@H](C)NC(=O)CNC(=O)[C@H](Cc1ccccc1)NC(=O)[C@H](CC(N)=O)NC(=O)[C@@H]1CCCN1C(=O)[C@H](CO)NC(=O)[C@H](CO)NC(=O)[C@H](Cc1c[nH]cn1)NC(=O)[C@H](CCCNC(=N)N)NC(=O)[C@H](CC(C)C)NC(=O)[C@H](Cc1ccccc1)NC(=O)[C@H](CCC(=O)O)NC(=O)[C@H](C)NC(=O)[C@H](CC(C)C)NC(=O)[C@H](CCCNC(=N)N)NC(=O)[C@H](CCC(N)=O)NC(=O)[C@@H](NC(=O)[C@H](C)NC(=O)[C@@H]1CSSC[C@H](NC(=O)[C@H](CCCCN)NC(=O)CC[C@H](NC(=O)CCCCCCCCCCCCCCCCCCC(=O)O)C(=O)O)C(=O)N[C@@H](CC(N)=O)C(=O)N[C@@H]([C@@H](C)O)C(=O)N[C@@H](C)C(=O)N[C@@H]([C@@H](C)O)C(=O)N1)[C@@H](C)O)C(=O)N1CCC[C@H]1C(=O)N[C@@H](CO)C(=O)N[C@@H](CO)C(=O)N[C@H](C(=O)N[C@@H](CC(N)=O)C(=O)N[C@H](C(=O)NCC(=O)N1CCC[C@H]1C(=O)N[C@@H](CC(N)=O)C(=O)N[C@H](C(=O)N[C@@H](Cc1ccc(O)cc1)C(N)=O)[C@@H](C)O)C(C)C)[C@@H](C)O
notes: Synthetic analogue; also called compound 32
Which “Ratio hCT/hAmylin binding” value [1] does the source give for B4 here?
The value was 10.9.

What about the IC50 [2] of the same binder?
The IC50 was 1.09 nM.

B5: N^α1-[(4S)-4-carboxy-4-(19-carboxynonadecanoylamino)butanoyl]-[Glu14,Arg17,Pro21,Pro27,Pro31]-h-amylin (peptide)
peptide: {C20 diacid-γGlu}-KCNTATCATQRLAEFLRHSSPNFGAIPSSTPVGSNTY-NH2
modifications: disulfide 2-7
SMILES: CC[C@H](C)[C@H](NC(=O)[C@H](C)NC(=O)CNC(=O)[C@H](Cc1ccccc1)NC(=O)[C@H](CC(N)=O)NC(=O)[C@@H]1CCCN1C(=O)[C@H](CO)NC(=O)[C@H](CO)NC(=O)[C@H](Cc1c[nH]cn1)NC(=O)[C@H](CCCNC(=N)N)NC(=O)[C@H](CC(C)C)NC(=O)[C@H](Cc1ccccc1)NC(=O)[C@H](CCC(=O)O)NC(=O)[C@H](C)NC(=O)[C@H](CC(C)C)NC(=O)[C@H](CCCNC(=N)N)NC(=O)[C@H](CCC(N)=O)NC(=O)[C@@H](NC(=O)[C@H](C)NC(=O)[C@@H]1CSSC[C@H](NC(=O)[C@H](CCCCN)NC(=O)CC[C@H](NC(=O)CCCCCCCCCCCCCCCCCCC(=O)O)C(=O)O)C(=O)N[C@@H](CC(N)=O)C(=O)N[C@@H]([C@@H](C)O)C(=O)N[C@@H](C)C(=O)N[C@@H]([C@@H](C)O)C(=O)N1)[C@@H](C)O)C(=O)N1CCC[C@H]1C(=O)N[C@@H](CO)C(=O)N[C@@H](CO)C(=O)N[C@H](C(=O)N1CCC[C@H]1C(=O)N[C@H](C(=O)NCC(=O)N[C@@H](CO)C(=O)N[C@@H](CC(N)=O)C(=O)N[C@H](C(=O)N[C@@H](Cc1ccc(O)cc1)C(N)=O)[C@@H](C)O)C(C)C)[C@@H](C)O
notes: Synthetic analogue; also called compound 31
With B5 as the binder, how does the “Ratio hCT/hAmylin binding” value [1] read?
The value was 16.

And the IC50 [2]?
Its IC50 is 3.26 nM.
